# Source: the supplement of paper PMC10065799, “High-throughput profiling of sequence recognition by tyrosine kinases and SH2 domains using bacterial peptide display” (eLife, 2023)
# System: c-Abl (mouse)
# Assay: phosphorylation enrichment, bacterial display (enrichment ratio); higher = better substrate or ligand; peptides without Tyr show the background
# 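Note: 11-residue human phosphosite peptides and single-mutation variants displayed on the E. coli surface, counted by deep sequencing, each peptide's frequency after selection divided by its frequency in the unselected input library; frequency after pTyr selection over input frequency; kinase dosed for 20-30% of maximal phosphorylation in three min.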
row,Sequence,phosphorylation enrichment
1,VTAALYGCLYE [BTD_Y536_R538C],0.954
2,FSKQIYKGMVA [PCDH15_Y931_R929Q],0.42
3,QKPLDYYRVNL [GALE_Y104],2.19
4,FDDGKYVFVVT [RPS6KA3_Y488_YF],0.995
5,NGQALYAACQT [XDH_Y1092_V1091L],2.26
6,ISRASYYRKGG [ALK_Y1282_Y1278S],0.569
7,CTAIHYNFMCN [TP53_Y234_T231A_YF],0.735
8,VGTKRYMAPEV [ACVRL1_Y375],0.532
9,RTLIRYANLGN [BEST1_Y131],1.04
10,TVSTGYTQPQP [SARG_Y259_R258G],0.511
11,ATCKAYGQALA [TKT_Y321_R318C],0.568
12,TVSRPYSFIEF [SEC22B_Y110],0.639
13,PQAVTYAKVKH [LILRB4_Y360],0.573
14,RIVEIYSRRLR [GCH1_Y175_Q180R],0.692
15,DEEPPDRGPFC [SASH1_Y551_Y551D],0.798
16,LVMFISAIFGM [SCN1A_Y1684_Y1684S],1.36
17,ANNEYYFRVCA,1.08

row,Sequence,phosphorylation enrichment
1,VKRNRYKDILP [PTPN12_Y64_K61R],0.514
2,LSIWPYLQKID [MFSD8_Y63_M58L],0.6
3,FGPPQYNMQFS [ERBB2IP_Y977_I979M_YF],0.383
4,EGWQVYRLGAR [MISP_Y95],0.625
5,HPHECYAKVFD [ALB_Y394_D389H],1.01
6,SHNELYFEAAE [VANGL1_Y344_E347A_YF],0.624
7,VNKLVYENING [FRS2_Y306],0.524
8,KGLKVYVNGTL [ADGRD1_Y183_E178K],0.584
9,GSERDYTYDEL [EIF2S2_Y174_E177D],0.803
10,KINKMYSDRAM,0.467
11,SGSIHYSHVPR [GLB1_Y57_R59H],0.658
12,SRDDFYETIAM [NPY1R_Y347_D346Y_YF],0.773
13,FLENFYDLEKD [MMP3_Y42_K45E_YF],0.764
14,TTPAVYARVAK [CTRB2_Y246],1.04
15,RSRSPYSSRHS [CDK13_Y415],0.637
16,YMRGMYFRMTD [PLA2G6_Y541_K545T],0.771

# System: AncSZ
# Assay: as above
row,Sequence,phosphorylation enrichment
1,VTAALYGCLYE [BTD_Y536_R538C],1.34
2,FSKQIYKGMVA [PCDH15_Y931_R929Q],0.441
3,QKPLDYYRVNL [GALE_Y104],1.77
4,FDDGKYVFVVT [RPS6KA3_Y488_YF],1.38
5,NGQALYAACQT [XDH_Y1092_V1091L],0.775
6,ISRASYYRKGG [ALK_Y1282_Y1278S],0.588
7,CTAIHYNFMCN [TP53_Y234_T231A_YF],0.814
8,VGTKRYMAPEV [ACVRL1_Y375],0.611
9,RTLIRYANLGN [BEST1_Y131],1.03
10,TVSTGYTQPQP [SARG_Y259_R258G],0.675
11,ATCKAYGQALA [TKT_Y321_R318C],0.753
12,TVSRPYSFIEF [SEC22B_Y110],0.746
13,PQAVTYAKVKH [LILRB4_Y360],0.405
14,RIVEIYSRRLR [GCH1_Y175_Q180R],0.691
15,DEEPPDRGPFC [SASH1_Y551_Y551D],1.15
16,LVMFISAIFGM [SCN1A_Y1684_Y1684S],1.69
17,ANNEYYFRVCA,1.4

row,Sequence,phosphorylation enrichment
1,VKRNRYKDILP [PTPN12_Y64_K61R],0.65
2,LSIWPYLQKID [MFSD8_Y63_M58L],1.16
3,FGPPQYNMQFS [ERBB2IP_Y977_I979M_YF],0.64
4,EGWQVYRLGAR [MISP_Y95],0.9
5,HPHECYAKVFD [ALB_Y394_D389H],1.16
6,SHNELYFEAAE [VANGL1_Y344_E347A_YF],1.11
7,VNKLVYENING [FRS2_Y306],0.665
8,KGLKVYVNGTL [ADGRD1_Y183_E178K],1.11
9,GSERDYTYDEL [EIF2S2_Y174_E177D],1.14
10,KINKMYSDRAM,0.53
11,SGSIHYSHVPR [GLB1_Y57_R59H],0.681
12,SRDDFYETIAM [NPY1R_Y347_D346Y_YF],1.3
13,FLENFYDLEKD [MMP3_Y42_K45E_YF],1.33
14,TTPAVYARVAK [CTRB2_Y246],0.49
15,RSRSPYSSRHS [CDK13_Y415],0.596
16,YMRGMYFRMTD [PLA2G6_Y541_K545T],1.21

# Target: FGFR1 (UniProt P11362)
# Sequence (P11362 whole entry, looked up): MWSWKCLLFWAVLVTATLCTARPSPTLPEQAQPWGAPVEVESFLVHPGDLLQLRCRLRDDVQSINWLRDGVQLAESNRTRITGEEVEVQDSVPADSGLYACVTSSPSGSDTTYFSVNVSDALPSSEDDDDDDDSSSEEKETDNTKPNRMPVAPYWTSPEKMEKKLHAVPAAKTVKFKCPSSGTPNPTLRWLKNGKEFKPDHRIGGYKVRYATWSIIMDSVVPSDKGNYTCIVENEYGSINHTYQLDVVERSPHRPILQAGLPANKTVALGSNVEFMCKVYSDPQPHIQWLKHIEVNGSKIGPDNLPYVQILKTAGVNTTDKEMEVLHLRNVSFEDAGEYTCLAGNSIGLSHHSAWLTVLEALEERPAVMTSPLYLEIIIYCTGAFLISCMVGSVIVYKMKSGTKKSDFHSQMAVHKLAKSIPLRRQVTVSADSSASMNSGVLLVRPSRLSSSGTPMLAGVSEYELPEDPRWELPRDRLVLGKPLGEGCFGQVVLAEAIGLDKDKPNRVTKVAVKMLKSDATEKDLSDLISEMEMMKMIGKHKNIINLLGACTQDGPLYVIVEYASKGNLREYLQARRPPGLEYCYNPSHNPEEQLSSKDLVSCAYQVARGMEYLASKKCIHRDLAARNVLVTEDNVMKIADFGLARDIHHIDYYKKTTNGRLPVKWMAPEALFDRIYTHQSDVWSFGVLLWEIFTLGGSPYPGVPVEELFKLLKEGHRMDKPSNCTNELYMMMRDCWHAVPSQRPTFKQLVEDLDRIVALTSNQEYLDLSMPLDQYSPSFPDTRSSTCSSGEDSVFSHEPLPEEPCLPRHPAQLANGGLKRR
# Assay: as above
row,Sequence,phosphorylation enrichment
1,VTAALYGCLYE [BTD_Y536_R538C],0.558
2,FSKQIYKGMVA [PCDH15_Y931_R929Q],0.337
3,QKPLDYYRVNL [GALE_Y104],17.8
4,FDDGKYVFVVT [RPS6KA3_Y488_YF],0.632
5,NGQALYAACQT [XDH_Y1092_V1091L],0.554
6,ISRASYYRKGG [ALK_Y1282_Y1278S],0.409
7,CTAIHYNFMCN [TP53_Y234_T231A_YF],0.598
8,VGTKRYMAPEV [ACVRL1_Y375],0.413
9,RTLIRYANLGN [BEST1_Y131],0.621
10,TVSTGYTQPQP [SARG_Y259_R258G],0.523
11,ATCKAYGQALA [TKT_Y321_R318C],0.445
12,TVSRPYSFIEF [SEC22B_Y110],3.02
13,PQAVTYAKVKH [LILRB4_Y360],0.398
14,RIVEIYSRRLR [GCH1_Y175_Q180R],0.292
15,DEEPPDRGPFC [SASH1_Y551_Y551D],0.574
16,LVMFISAIFGM [SCN1A_Y1684_Y1684S],1.15
17,ANNEYYFRVCA,1.89

row,Sequence,phosphorylation enrichment
1,VKRNRYKDILP [PTPN12_Y64_K61R],0.463
2,LSIWPYLQKID [MFSD8_Y63_M58L],0.584
3,FGPPQYNMQFS [ERBB2IP_Y977_I979M_YF],0.448
4,EGWQVYRLGAR [MISP_Y95],0.5
5,HPHECYAKVFD [ALB_Y394_D389H],0.636
6,SHNELYFEAAE [VANGL1_Y344_E347A_YF],1.13
7,VNKLVYENING [FRS2_Y306],0.52
8,KGLKVYVNGTL [ADGRD1_Y183_E178K],0.421
9,GSERDYTYDEL [EIF2S2_Y174_E177D],0.507
10,KINKMYSDRAM,0.417
11,SGSIHYSHVPR [GLB1_Y57_R59H],0.451
12,SRDDFYETIAM [NPY1R_Y347_D346Y_YF],0.5
13,FLENFYDLEKD [MMP3_Y42_K45E_YF],0.504
14,TTPAVYARVAK [CTRB2_Y246],0.436
15,RSRSPYSSRHS [CDK13_Y415],0.701
16,YMRGMYFRMTD [PLA2G6_Y541_K545T],0.592

# Target: EPHB1 (UniProt P54762)
# Sequence (P54762 whole entry, looked up): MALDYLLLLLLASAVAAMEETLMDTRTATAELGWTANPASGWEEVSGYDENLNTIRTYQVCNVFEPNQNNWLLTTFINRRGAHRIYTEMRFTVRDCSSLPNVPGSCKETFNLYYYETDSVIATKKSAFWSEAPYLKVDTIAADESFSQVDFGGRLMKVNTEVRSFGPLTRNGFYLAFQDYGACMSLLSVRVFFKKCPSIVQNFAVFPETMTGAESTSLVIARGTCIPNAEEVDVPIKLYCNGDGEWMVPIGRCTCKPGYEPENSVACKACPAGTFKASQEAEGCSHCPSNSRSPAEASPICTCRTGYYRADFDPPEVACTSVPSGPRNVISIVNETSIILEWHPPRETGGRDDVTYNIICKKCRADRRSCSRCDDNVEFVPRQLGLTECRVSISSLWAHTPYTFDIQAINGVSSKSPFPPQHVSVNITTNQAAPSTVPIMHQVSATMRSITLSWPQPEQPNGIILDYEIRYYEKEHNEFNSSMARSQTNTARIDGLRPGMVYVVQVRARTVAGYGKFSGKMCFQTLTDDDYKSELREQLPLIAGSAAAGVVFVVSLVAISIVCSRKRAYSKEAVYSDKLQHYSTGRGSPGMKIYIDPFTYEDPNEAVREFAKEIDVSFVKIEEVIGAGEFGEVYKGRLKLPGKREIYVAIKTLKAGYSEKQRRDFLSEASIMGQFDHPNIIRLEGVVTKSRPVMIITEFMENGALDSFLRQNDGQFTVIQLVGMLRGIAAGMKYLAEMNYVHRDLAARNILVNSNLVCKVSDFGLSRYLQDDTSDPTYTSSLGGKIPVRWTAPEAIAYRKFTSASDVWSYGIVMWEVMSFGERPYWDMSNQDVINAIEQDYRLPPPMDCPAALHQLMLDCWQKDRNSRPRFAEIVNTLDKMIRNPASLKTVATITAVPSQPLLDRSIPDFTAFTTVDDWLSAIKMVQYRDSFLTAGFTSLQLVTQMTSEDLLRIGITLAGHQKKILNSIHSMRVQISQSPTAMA
# Assay: as above
row,Sequence,phosphorylation enrichment
1,VTAALYGCLYE [BTD_Y536_R538C],1.34
2,FSKQIYKGMVA [PCDH15_Y931_R929Q],0.351
3,QKPLDYYRVNL [GALE_Y104],6.99
4,FDDGKYVFVVT [RPS6KA3_Y488_YF],0.652
5,NGQALYAACQT [XDH_Y1092_V1091L],9.24
6,ISRASYYRKGG [ALK_Y1282_Y1278S],0.427
7,CTAIHYNFMCN [TP53_Y234_T231A_YF],0.622
8,VGTKRYMAPEV [ACVRL1_Y375],0.351
9,RTLIRYANLGN [BEST1_Y131],0.918
10,TVSTGYTQPQP [SARG_Y259_R258G],0.378
11,ATCKAYGQALA [TKT_Y321_R318C],0.523
12,TVSRPYSFIEF [SEC22B_Y110],0.527
13,PQAVTYAKVKH [LILRB4_Y360],0.421
14,RIVEIYSRRLR [GCH1_Y175_Q180R],0.728
15,DEEPPDRGPFC [SASH1_Y551_Y551D],0.549
16,LVMFISAIFGM [SCN1A_Y1684_Y1684S],1.1
17,ANNEYYFRVCA,0.895

row,Sequence,phosphorylation enrichment
1,VKRNRYKDILP [PTPN12_Y64_K61R],0.575
2,LSIWPYLQKID [MFSD8_Y63_M58L],0.929
3,FGPPQYNMQFS [ERBB2IP_Y977_I979M_YF],0.414
4,EGWQVYRLGAR [MISP_Y95],0.493
5,HPHECYAKVFD [ALB_Y394_D389H],0.641
6,SHNELYFEAAE [VANGL1_Y344_E347A_YF],0.509
7,VNKLVYENING [FRS2_Y306],4.71
8,KGLKVYVNGTL [ADGRD1_Y183_E178K],0.524
9,GSERDYTYDEL [EIF2S2_Y174_E177D],0.504
10,KINKMYSDRAM,0.311
11,SGSIHYSHVPR [GLB1_Y57_R59H],0.426
12,SRDDFYETIAM [NPY1R_Y347_D346Y_YF],1.02
13,FLENFYDLEKD [MMP3_Y42_K45E_YF],0.531
14,TTPAVYARVAK [CTRB2_Y246],0.594
15,RSRSPYSSRHS [CDK13_Y415],0.422
16,YMRGMYFRMTD [PLA2G6_Y541_K545T],0.63
